The values below are quoted from earlier work in publication PMC7689341.

Read-outs that look alike come from different tables or passages of the source.

Series [1] concerns the target IFNλ3/IFNλR1 complex (Homo sapiens) (UniProt Q8IZI9).
For series [2], the target named is IFNλR1 (Homo sapiens) (UniProt Q8IU57).
Series [3] deals with IFNAR2 (Homo sapiens) (UniProt P48551).
Series [4] has as its target IFNAR1 (Mus musculus) (UniProt P33896).
The target in series [5] is IFNAR2 (Mus musculus) (UniProt O35664).
Chain of IFNAR2 (Mus musculus) (O35664 22-242): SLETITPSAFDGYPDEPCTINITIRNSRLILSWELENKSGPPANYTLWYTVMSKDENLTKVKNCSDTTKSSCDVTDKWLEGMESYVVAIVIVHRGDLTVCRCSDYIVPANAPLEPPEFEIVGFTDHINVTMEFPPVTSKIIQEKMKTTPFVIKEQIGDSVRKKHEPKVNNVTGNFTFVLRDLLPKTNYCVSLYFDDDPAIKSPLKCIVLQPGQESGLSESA
The target of series [6] is IFNAR1 (Homo sapiens) (UniProt P17181).
Chain of IFNAR1 (Homo sapiens) (P17181 28-436): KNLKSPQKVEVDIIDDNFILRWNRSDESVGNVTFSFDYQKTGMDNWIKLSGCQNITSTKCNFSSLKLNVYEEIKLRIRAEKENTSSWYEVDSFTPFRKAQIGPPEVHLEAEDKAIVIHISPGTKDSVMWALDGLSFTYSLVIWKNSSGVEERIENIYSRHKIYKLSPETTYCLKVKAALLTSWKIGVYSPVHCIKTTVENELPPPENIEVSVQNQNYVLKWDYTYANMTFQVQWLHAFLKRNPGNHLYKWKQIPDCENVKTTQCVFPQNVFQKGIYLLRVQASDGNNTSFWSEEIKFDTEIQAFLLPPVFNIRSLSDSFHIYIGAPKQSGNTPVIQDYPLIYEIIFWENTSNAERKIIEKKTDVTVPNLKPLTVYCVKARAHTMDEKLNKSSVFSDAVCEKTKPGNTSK
For series [7], the target named is IFNAR2 (Homo sapiens) (UniProt P48551). This is another data set of the same source.

Chain of IFNβ (from UniProt P01574) (P01574 22-187): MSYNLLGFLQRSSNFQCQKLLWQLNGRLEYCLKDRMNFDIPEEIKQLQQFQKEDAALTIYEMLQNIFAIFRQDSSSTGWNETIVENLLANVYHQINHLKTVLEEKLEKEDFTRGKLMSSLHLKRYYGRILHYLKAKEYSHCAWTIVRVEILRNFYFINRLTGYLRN
Chain of IFNAR2 (Homo sapiens) (P48551 27-243): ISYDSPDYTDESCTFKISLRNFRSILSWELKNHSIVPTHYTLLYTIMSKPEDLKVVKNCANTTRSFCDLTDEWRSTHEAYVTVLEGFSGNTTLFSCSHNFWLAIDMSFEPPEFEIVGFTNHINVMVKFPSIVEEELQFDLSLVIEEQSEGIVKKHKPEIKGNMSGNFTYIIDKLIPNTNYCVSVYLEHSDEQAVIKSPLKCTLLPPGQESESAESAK
Chain of IFNβ (from UniProt P01575) (P01575 22-182): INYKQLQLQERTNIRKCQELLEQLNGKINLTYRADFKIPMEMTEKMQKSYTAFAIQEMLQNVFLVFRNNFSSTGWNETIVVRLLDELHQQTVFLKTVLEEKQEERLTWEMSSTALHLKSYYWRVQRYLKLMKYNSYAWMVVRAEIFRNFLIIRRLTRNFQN
Chain of IFNλR1 (Homo sapiens) (Q8IU57 21-228): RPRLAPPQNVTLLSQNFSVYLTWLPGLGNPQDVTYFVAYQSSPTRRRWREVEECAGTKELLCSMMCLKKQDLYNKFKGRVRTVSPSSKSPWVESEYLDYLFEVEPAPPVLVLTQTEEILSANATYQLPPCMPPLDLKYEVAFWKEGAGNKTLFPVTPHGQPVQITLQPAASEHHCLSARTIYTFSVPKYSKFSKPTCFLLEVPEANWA
Chain of IL-10R2 (Q08334 20-220): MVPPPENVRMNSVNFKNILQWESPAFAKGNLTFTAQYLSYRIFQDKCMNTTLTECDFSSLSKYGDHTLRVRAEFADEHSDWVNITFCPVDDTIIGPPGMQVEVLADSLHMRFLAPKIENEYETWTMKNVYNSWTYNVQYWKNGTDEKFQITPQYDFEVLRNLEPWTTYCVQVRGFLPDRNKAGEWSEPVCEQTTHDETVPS
Chain of IFNAR1 (Mus musculus) (P33896 27-429): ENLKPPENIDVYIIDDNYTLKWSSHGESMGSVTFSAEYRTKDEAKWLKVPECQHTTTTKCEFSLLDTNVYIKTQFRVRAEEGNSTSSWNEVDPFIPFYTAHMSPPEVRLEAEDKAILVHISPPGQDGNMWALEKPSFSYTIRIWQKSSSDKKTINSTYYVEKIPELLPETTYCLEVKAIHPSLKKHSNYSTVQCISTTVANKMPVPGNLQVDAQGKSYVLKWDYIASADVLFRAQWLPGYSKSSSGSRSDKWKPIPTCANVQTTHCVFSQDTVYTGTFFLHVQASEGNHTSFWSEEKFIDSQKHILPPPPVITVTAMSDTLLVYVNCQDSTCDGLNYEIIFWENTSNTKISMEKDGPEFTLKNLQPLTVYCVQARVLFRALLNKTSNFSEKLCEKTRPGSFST
Chain of IFNλ3 (Q8IZI9 22-196): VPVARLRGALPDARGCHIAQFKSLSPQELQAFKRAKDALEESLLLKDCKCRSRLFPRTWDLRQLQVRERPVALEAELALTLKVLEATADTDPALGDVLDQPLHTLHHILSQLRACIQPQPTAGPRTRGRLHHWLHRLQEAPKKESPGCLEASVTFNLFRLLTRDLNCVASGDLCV
Chain of IFNλ3/IFNλR1 complex (Homo sapiens) (Q8IZI9 22-196, chain 1 of 2): as the sequence (Q8IZI9 22-196) above
Chain of IFNλ3/IFNλR1 complex (Homo sapiens) (Q8IU57 21-228, chain 2 of 2, further chain): as the sequence (Q8IU57 21-228) above

IL-10R2 (from UniProt Q08334): the Kd in series [1] was 15000 nM.

With IFNλ3 (from UniProt Q8IZI9), in series [2], the Kd is 850 nM.

IFNα1 (from UniProt P0DY56): in series [3], the Kd is 100 nM.

As for IFNβ (from UniProt P01575), the results for the dissociation constant Kd in series [4] and in series [5] were 10 nM and 1700 nM, respectively.

Consider IFNβ (from UniProt P01574), for which the results for the Kd in series [6] and in series [7] were 30 nM and 0.1 nM, respectively.
